Test results from US20160194394A1 (GOVERNING COUNCIL OF THE UNIVERSITY OF TORONTO, published 2016).

How the values were obtained:
[1] = target: T1, FZD7 receptor expressed on cells (full-length) (UniProt O75084 33-574, limits assumed); assay: flow cytometry, 200 nM Fab, FZD7 over-expression line (MDA MB 231) [cont'd]
T1 construct: whole, on cells; MDA MB 231 cells may carry other Frizzled receptors too; also called full-length FZD7 receptor; endogenous receptor on MDA MB 231 cells
Method: (§1) FIG. 3 is a table depicting the binding of the purified Fabs to cells expressing FZD7 (flow cytometry). Small scale Fabs were assayed for binding to full-length FZD7 receptor to an over-expression line in MDA MB 231 cells. In parallel, Fabs were assayed for binding to endogenous receptor expressed on the MDA MB 231 cells. Cells were harvested using an EDTA solution, blocked in 2% FBS/PBS (stain buffer), and stained with 200 nM Fab for 30 min on ice. Cells were washed two times with stain buffer and incubated with anti-F(ab′)₂-APC secondary antibody (Jackson Immuno) at 1:1000 for 15 minutes on ice. All antibodies were diluted in stain buffer. Cells were washed three times with stain buffer and then fixed with 1% paraformaldehye for analysis by flow cytometry. […] The percent of the cell population within the positive gates is indicated.

Fc control protein [2] = target: T2, Fc control protein; assay: ELISA, 1ug/ml (20nM) Fab [cont'd]
T2 construct: also called Fc protein; control Fc protein
Method: (§2) FIG. 2B is a table depicting the binding of purified Fabs to purified FZD7-Fc measured by ELISA. Fabs purified from 25 ml bacterial cultures were assayed for binding to FZD7-Fc fusion protein (R&D systems) and Fc protein. ELISA plates (384 well) were coated with 2 ug/ml of protein in PBS overnight at four degrees. Wells were blocked with 0.5% BSA/PBS for 1 hour at room temperature, washed three times with 0.05% Tween20/PBS (wash buffer), and then primary dilutions of Fabs in 0.5% BSA/0.05% Tween20/PBS (dilution buffer) were added at indicated concentrations. Fabs were incubated for 1 hour at room temperature, wells were washed six times, and anti-FLAG-HRP (Sigma) was added at 1:5000 in dilution buffer. Secondary antibody was incubated for 45 minutes at room temperature, and wells were washed six times and developed with TMB substrate with an acid stop. The absorbance at 450 nm was read. n.t.=not tested.

[3] = target: T3, recombinant Frizzled receptor 7 (FZD7) cysteine-rich domain (CRD) fused to the Fc region of human IgG (human, UniProt O75084 33-185); assay: ELISA, 1ug/ml (20nM) Fab [cont'd]
Method: as §2

Fc control protein [4] = target: T2, Fc control protein; assay: ELISA, 10ug/ml (200nM) Fab [cont'd]
Method: as §2

[5] = target: T3, recombinant Frizzled receptor 7 (FZD7) …; assay: ELISA, 10ug/ml (200nM) Fab [cont'd]
Method: as §2

[6] = target: T1, FZD7 receptor expressed on cells …; assay: flow cytometry, 200 nM Fab, MDA MB 231 [cont'd]
Method: as §1

Fc control protein [7] = target: T2, Fc control protein; assay: ELISA, 1ug/ml (20nM) Fab
Method: as §2

[8] = target: T3, recombinant Frizzled receptor 7 (FZD7) …; assay: ELISA, 1ug/ml (20nM) Fab
Method: as §2

Fc control protein [9] = target: T2, Fc control protein; assay: ELISA, 10ug/ml (200nM) Fab
Method: as §2

[10] = target: T3, recombinant Frizzled receptor 7 (FZD7) …; assay: ELISA, 10ug/ml (200nM) Fab
Method: as §2

[11] = target: T1, FZD7 receptor expressed on cells …; assay: flow cytometry, 200 nM Fab, FZD7 over-expression line (MDA MB 231)
Method: as §1

[12] = target: T1, FZD7 receptor expressed on cells …; assay: flow cytometry, 200 nM Fab, MDA MB 231
Method: as §1

% population within the positive gate [1]	OD 450 (Fc control protein [2])	OD 450 [3]	OD 450 (Fc control protein [4])	OD 450 [5]	% population within the positive gate [6]	OD 450 (Fc control protein [7])	OD 450 [8]	OD 450 (Fc control protein [9])	OD 450 [10]	% population within the positive gate [11]	% population within the positive gate [12]	Binder
91.2%	0.05	3.15	0.08	3.2	97.2%	–	–	–	–	–	–	B11 (Fab, selection round 2; also called Fzd7-R2-B11) light: DIQMTQSPSSLSASVGDRVTITCRASQSVSSAVAWYQQKPGKAPKLLIYSASSLYSGVPSRFSGSRSGTDFTLTISSLQPEDFATYYCQQYFYSSYSPITFGQGTKVEIKRTVAAPSVFIFPPSDSQLKSGTASVVCLLNNFYPREAKVQWKVDNALQSGNSQESVTEQDSKDSTYSLSSTLTLSKADYEKHKVYACEVTHQGLSSPVTKSFNRGECGGS heavy: EVQLVESGGGLVQPGGSLRLSCAASGFNISYSYMHWVRQAPGKGLEWVAYIYPSYSSTSYADSVKGRFTISADTSKNTAYLQMNSLRAEDTAVYYCARASYWALDYWGQGTLVTVSSASTKGPSVFPLAPSSKSTSGGTAALGCLVKDYFPEPVTVSWNSGALTSGVHTFPAVLQSSGLYSLSSVVTVPSSSLGTQTYICNVNHKPSNTKVDKKVEPKSC
79.6%	0.06	0.78	0.08	2.7	1.1%	–	–	–	–	–	–	H8 (Fab, selection round 2; also called Fzd7-R2-H8) light: DIQMTQSPSSLSASVGDRVTITCRASQSVSSAVAWYQQKPGKAPKLLIYSASSLYSGVPSRFSGSRSGTDFTLTISSLQPEDFATYYCQQSFYWGYPPFTFGQGTKVEIKRTVAAPSVFIFPPSDSQLKSGTASVVCLLNNFYPREAKVQWKVDNALQSGNSQESVTEQDSKDSTYSLSSTLTLSKADYEKHKVYACEVTHQGLSSPVTKSFNRGECGGS heavy: EVQLVESGGGLVQPGGSLRLSCAASGFNIYSSSIHWVRQAPGKGLEWVASIYSYYGYTYYADSVKGRFTISADTSKNTAYLQMNSLRAEDTAVYYCARWYAFDYWGQGTLVTVSSASTKGPSVFPLAPSSKSTSGGTAALGCLVKDYFPEPVTVSWNSGALTSGVHTFPAVLQSSGLYSLSSVVTVPSSSLGTQTYICNVNHKPSNTKVDKKVEPKSC
92.7%	0.07	3.19	0.07	3.22	96.3%	–	–	–	–	–	–	A7 (Fab, selection round 2; also called Fzd7-R2-A7) light: DIQMTQSPSSLSASVGDRVTITCRASQSVSSAVAWYQQKPGKAPKLLIYSASSLYSGVPSRFSGSRSGTDFTLTISSLQPEDFATYYCQQYHYGYYPFTFGQGTKVEIKRTVAAPSVFIFPPSDSQLKSGTASVVCLLNNFYPREAKVQWKVDNALQSGNSQESVTEQDSKDSTYSLSSTLTLSKADYEKHKVYACEVTHQGLSSPVTKSFNRGECGGS heavy: EVQLVESGGGLVQPGGSLRLSCAASGFNLSSSYIHWVRQAPGKGLEWVAYIYSSYGSTYYADSVKGRFTISADTSKNTAYLQMNSLRAEDTAVYYCARASWWAIDYWGQGTLVTVSSASTKGPSVFPLAPSSKSTSGGTAALGCLVKDYFPEPVTVSWNSGALTSGVHTFPAVLQSSGLYSLSSVVTVPSSSLGTQTYICNVNHKPSNTKVDKKVEPKSC
–	–	–	–	–	–	0.06	3.13	0.14	3.19	83.8%	33.3%	G12 (Fab, selection round 2; also called Fzd7-R2-G12) light: DIQMTQSPSSLSASVGDRVTITCRASQSVSSAVAWYQQKPGKAPKLLIYSASSLYSGVPSRFSGSRSGTDFTLTISSLQPEDFATYYCQQWGYGALITFGQGTKVEIKRTVAAPSVFIFPPSDSQLKSGTASVVCLLNNFYPREAKVQWKVDNALQSGNSQESVTEQDSKDSTYSLSSTLTLSKADYEKHKVYACEVTHQGLSSPVTKSFNRGECGGS heavy: EVQLVESGGGLVQPGGSLRLSCAASGFNISYSSIHWVRQAPGKGLEWVASIYPSPGYTSYADSVKGRFTISADTSKNTAYLQMNSLRAEDTAVYYCARHGWYGLDYWGQGTLVTVSSASTKGPSVFPLAPSSKSTSGGTAALGCLVKDYFPEPVTVSWNSGALTSGVHTFPAVLQSSGLYSLSSVVTVPSSSLGTQTYICNVNHKPSNTKVDKKVEPKSC
